The values that follow come from US20090118185A1 (UNIVERSITY OF ROCHESTER, published 2009).

Data set [1] addresses T1, 562(P4-P3′)336 factor VIIIa mutant.
T1 chain 1: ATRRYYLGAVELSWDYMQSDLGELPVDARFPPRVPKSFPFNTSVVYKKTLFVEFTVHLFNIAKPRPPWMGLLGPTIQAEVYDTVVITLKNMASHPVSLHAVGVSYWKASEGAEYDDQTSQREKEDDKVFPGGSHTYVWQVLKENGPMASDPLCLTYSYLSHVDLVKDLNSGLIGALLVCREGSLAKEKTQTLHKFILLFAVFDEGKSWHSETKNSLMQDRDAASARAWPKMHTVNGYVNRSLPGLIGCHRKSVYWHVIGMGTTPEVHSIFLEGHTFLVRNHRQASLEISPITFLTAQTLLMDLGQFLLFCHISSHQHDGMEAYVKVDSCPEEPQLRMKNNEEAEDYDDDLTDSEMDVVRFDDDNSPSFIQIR
T1 chain 2: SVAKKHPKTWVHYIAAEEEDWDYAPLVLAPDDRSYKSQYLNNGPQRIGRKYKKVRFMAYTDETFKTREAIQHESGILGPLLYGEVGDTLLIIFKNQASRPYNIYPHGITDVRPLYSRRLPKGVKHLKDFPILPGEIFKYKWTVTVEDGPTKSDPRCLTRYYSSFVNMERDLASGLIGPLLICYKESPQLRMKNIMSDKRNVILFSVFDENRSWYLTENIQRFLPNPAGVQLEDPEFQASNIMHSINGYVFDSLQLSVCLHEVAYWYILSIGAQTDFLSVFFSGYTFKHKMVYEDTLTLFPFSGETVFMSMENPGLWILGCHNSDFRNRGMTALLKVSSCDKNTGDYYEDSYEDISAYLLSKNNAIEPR
T1 chain 3: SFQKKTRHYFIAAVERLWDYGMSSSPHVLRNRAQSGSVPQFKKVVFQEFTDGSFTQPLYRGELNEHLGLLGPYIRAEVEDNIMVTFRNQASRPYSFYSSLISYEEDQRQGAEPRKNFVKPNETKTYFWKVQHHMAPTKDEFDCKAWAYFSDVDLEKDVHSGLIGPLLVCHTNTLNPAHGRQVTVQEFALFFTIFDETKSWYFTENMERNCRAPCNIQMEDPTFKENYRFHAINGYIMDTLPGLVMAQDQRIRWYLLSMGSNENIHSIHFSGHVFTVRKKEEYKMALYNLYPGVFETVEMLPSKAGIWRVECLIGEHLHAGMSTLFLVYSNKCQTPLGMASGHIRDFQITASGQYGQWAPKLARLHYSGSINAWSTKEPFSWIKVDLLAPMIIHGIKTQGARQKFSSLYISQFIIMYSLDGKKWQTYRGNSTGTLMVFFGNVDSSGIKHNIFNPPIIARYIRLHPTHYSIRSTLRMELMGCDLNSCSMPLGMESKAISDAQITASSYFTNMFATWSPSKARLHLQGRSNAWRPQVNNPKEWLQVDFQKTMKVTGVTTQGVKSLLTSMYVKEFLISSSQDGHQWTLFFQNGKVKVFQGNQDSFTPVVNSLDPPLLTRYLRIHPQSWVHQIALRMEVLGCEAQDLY

The target of data set [2] is T2, 336(P4-P2)562 factor VIIIa mutant.
T2 chain 1: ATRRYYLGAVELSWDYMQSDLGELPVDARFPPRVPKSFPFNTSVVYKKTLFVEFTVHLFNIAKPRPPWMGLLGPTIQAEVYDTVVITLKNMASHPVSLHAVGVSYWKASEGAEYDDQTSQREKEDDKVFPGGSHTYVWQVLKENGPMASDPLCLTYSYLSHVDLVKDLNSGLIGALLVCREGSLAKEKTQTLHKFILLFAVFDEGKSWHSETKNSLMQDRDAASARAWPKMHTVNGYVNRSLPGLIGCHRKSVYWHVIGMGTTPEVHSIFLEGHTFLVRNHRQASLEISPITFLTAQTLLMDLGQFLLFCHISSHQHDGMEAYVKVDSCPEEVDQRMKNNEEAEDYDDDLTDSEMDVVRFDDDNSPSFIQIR
T2 chain 2: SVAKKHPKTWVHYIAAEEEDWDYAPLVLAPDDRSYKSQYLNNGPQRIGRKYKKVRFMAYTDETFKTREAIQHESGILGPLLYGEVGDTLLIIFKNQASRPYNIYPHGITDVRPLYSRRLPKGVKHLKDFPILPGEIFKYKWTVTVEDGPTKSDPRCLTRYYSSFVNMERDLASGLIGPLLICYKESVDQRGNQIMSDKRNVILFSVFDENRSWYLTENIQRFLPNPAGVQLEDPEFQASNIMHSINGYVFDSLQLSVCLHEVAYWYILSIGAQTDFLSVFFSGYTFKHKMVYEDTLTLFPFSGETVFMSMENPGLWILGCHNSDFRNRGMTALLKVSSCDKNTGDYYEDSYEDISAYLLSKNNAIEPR
T2 chain 3: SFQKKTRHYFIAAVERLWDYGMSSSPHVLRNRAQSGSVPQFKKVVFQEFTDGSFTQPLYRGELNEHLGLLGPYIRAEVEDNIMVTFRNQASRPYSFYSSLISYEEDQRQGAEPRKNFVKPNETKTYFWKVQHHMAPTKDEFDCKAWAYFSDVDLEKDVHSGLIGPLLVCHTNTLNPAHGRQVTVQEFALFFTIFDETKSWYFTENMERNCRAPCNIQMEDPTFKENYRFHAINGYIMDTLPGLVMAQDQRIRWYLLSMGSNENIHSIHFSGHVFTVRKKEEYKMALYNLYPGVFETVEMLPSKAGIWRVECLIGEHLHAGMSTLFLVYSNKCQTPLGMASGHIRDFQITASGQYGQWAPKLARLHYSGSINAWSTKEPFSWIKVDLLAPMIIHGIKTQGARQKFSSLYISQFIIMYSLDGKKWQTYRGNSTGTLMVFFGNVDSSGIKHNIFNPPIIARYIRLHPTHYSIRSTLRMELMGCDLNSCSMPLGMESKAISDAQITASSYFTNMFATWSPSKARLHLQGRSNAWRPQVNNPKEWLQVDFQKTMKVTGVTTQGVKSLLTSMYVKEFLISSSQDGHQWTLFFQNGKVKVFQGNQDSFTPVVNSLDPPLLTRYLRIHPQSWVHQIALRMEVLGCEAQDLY

In data set [3] the target is T3, 336(P4-P3′)562 factor VIIIa mutant.
T3 chain 1: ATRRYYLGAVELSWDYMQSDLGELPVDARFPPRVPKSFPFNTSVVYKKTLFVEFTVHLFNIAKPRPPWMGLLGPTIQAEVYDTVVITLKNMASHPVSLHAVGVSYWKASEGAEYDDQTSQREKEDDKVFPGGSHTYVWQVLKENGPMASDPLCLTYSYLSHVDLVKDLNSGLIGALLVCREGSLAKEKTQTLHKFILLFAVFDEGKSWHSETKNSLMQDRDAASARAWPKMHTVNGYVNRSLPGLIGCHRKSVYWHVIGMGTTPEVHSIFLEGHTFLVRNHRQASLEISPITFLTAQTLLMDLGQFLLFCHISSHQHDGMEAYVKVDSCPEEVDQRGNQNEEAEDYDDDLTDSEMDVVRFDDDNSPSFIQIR
T3 chain 2: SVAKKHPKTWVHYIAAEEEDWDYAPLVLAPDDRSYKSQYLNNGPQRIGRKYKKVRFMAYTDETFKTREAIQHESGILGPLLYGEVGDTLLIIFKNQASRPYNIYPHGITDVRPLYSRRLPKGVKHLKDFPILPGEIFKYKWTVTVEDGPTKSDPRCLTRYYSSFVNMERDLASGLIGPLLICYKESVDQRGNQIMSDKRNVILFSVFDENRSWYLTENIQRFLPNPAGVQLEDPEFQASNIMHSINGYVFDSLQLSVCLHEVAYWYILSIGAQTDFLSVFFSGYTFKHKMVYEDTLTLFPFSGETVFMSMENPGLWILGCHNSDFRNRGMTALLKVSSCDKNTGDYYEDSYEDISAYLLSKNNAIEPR
T3 chain 3: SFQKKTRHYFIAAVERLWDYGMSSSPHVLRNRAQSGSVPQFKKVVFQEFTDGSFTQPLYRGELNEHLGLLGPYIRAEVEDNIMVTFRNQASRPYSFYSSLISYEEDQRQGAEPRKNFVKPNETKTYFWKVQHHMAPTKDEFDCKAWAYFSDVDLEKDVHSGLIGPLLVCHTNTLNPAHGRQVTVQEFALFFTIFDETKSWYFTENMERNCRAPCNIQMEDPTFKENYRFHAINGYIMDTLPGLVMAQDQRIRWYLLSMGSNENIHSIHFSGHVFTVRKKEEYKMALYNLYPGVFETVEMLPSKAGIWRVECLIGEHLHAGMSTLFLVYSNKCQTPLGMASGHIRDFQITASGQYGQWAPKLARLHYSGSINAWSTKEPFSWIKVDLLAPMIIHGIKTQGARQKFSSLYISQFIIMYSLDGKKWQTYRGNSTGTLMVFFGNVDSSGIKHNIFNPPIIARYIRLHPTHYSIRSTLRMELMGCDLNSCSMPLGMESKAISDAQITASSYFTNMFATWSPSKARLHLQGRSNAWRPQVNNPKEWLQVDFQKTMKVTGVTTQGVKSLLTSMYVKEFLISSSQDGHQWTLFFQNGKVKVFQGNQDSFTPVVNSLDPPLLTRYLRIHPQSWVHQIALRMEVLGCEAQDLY

B1: human activated protein C (protein)
chain 1: ANSFLEELRHSSLERECIEEICDFEEAKEIFQNVDDTLAFWSKHVDGDQCLVLPLEHPCASLCCGHGTCIDGIGSFSCDCRSGWEGRFCQREVSFLNCSLDNGGCTHYCLEEVGWRRCSCAPGYKLGDDLLQCHPAVKFPCGRPWKRMEKKRSHL
chain 2: LIDGKMTRRGDSPWQVVLLDSKKKLACGAVLIHPSWVLTAAHCMDESKKLLVRLGEYDLRRWEKWELDLDIKEVFVHPNYSKSTTDNDIALLHLAQPATLSQTIVPICLPDSGLAERELNQAGQETLVTGWGYHSSREKEAKRNRTFVLNFIKIPVVPHNECSEVMSNMVSENMLCAGILGDRQDACEGDSGGPMVASFHGTWFLVGLVSWGEGCGLLHNYGVYTKVSRYLDWIHGHIRDKEAPQKSWAP
In the case of B1, in data set [1], the A1 Cleavage (nM A1/min/nM APC) (nM A1/min/nM APC) turned out to be 7.3, the A2 Cleavage (nM A2/min/nM APC) (nM A2/min/nM APC) was 1.9 and the “fold increase of A2 subunit cleavage rate” value is reported as “the rate of A2 subunit cleavage for 562(P4-P3′)336 mutant was increased 4 fold”. Further, in data set [2], the A1 Cleavage (nM A1/min/nM APC) (nM A1/min/nM APC) was 0.6; the A2 Cleavage (nM A2/min/nM APC) (nM A2/min/nM APC) worked out at 0.2; the “fold reduction of cleavage rate at the A1 site compared with WT” value is “reduced ˜16 and ˜9-fold, respectively, as compared with the WT protein”. The A1 Cleavage (nM A1/min/nM APC) (nM A1/min/nM APC) in data set [3] worked out at 0.1.
